According to US20090082410A1:

Biological target: angiotensin II type 1A receptor
Assay: cell-based or functional assay

arrestin-GFP
arrestinGFP translocation response (Fgrains, INCell Analyzer), U2OS cells, 1:4 dilution of GRK2-C20 baculovirus, no ligand: 305 Fgrains
arrestinGFP translocation response (Fgrains, INCell Analyzer), U2OS cells, 1:256 dilution of GRK2-C20 baculovirus, no ligand: 77 Fgrains
arrestinGFP translocation response (Fgrains, INCell Analyzer), U2OS cells, no added GRK2-C20, no ligand: 18 Fgrains
